Assay results taken from patent publication US20230390362A1, “USE OF TRIGONAL AGONIST HAVING ACTIVITIES TO ALL OF GLUCAGON, GLP-1, AND GIP RECEPTORS IN TREATMENT OF SEQUELAE FOLLOWING RESPIRATORY INFECTIOUS DISEASES” (HANMI PHARM. CO., LTD., priority 2020, published 2023).
Positions of bridges follow the written chain, without caps; N, C: chain ends. Non-standard residues stand in square brackets, D forms with d. No end group written: not given here. *: point of attachment. Acetyl(2-(4-imidazolyl)) = O=C(Cc1c[nH]cn1)*; Aib = CC(C)(N)C(=O)O

T1: human GIP receptor (human, UniProt P48546 22-466)
T1 sequence (looked up): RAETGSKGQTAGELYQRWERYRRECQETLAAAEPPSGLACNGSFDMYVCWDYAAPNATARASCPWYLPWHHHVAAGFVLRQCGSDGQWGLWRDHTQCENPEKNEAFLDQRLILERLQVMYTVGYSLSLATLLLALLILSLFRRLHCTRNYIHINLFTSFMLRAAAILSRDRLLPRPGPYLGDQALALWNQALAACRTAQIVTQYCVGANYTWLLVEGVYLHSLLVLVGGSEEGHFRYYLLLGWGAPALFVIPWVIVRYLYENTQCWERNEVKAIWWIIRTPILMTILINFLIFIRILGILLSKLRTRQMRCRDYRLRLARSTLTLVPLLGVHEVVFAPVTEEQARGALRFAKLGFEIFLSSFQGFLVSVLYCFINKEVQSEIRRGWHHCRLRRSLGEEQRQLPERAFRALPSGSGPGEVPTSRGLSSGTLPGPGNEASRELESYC

B1: trigonal agonist of SEQ ID NO: 2 (peptide)
peptide: H[Aib]QGTFTSDVSSYLDGQAQKEFIAWLVKGC
B2: trigonal agonist of SEQ ID NO: 97 (peptide)
peptide: Y[Aib]QGTFTSDYSKYLDEKRAKEFVQWLLDCHPSSGQPPPS
modifications: bridge 16-20
B3: trigonal agonist of SEQ ID NO: 90 (peptide)
peptide: {Acetyl(2-(4-imidazolyl))}-[Aib]EGTFTSDYSIAMDEIHQKDFVNWLLAQKC
modifications: bridge 15-19
B4: trigonal agonist of SEQ ID NO: 92 (peptide)
peptide: {Acetyl(2-(4-imidazolyl))}-[Aib]QGTFTSDYSIAMDEIHQKDFVNWLLAQKC
modifications: bridge 15-19
B5: trigonal agonist of SEQ ID NO: 101 (peptide)
peptide: Y[Aib]QGTFTSDYSKALDEKAAKEFVNWLLDQHPSSGQPPPSC
modifications: bridge 16-20
B6: trigonal agonist of SEQ ID NO: 98 (peptide)
peptide: Y[Aib]QGTFTSDYSKALDEKAAKEFVNWLLDHHPSSGQPPPSC
modifications: bridge 16-20
B7: trigonal agonist of SEQ ID NO: 16 (peptide)
peptide: {Acetyl(2-(4-imidazolyl))}-GQGTFTSDLSKQMDSEAQQLFIEWLKNGGPSSGAPPPSHG
B8: trigonal agonist of SEQ ID NO: 10 (peptide)
peptide: H[Aib]QGTFTSDVSKYLDGQAAQEFVAWLLAGGGPSSGAPPPSC
B9: trigonal agonist of SEQ ID NO: 95 (peptide)
peptide: Y[Aib]QGTFTSDYSKYLDEKRAKEFVQWLLCHHPSSGQPPPS
modifications: bridge 16-20
B10: trigonal agonist of SEQ ID NO: 18 (peptide)
peptide: {Acetyl(2-(4-imidazolyl))}-GQGTFTSDLSKQMDSERAREFIEWLKNTGPSSGAPPPSHG
B11: trigonal agonist of SEQ ID NO: 11 (peptide)
peptide: {Acetyl(2-(4-imidazolyl))}-GEGTFTSDLSKYLDSRRQQLFVQWLKAGGPSSGAPPPSHG
B12: trigonal agonist of SEQ ID NO: 96 (peptide)
peptide: Y[Aib]QGTFTSDYSKYLDEKRAKEFVQWLLDHCPSSGQPPPS
modifications: bridge 16-20
B13: trigonal agonist of SEQ ID NO: 99 (peptide)
peptide: Y[Aib]QGTFTSDYSKALDEKAAKDFVNWLLDHHPSSGQPPPSC
modifications: bridge 16-20

Legend:
Test in all cases: cell-based or functional assay
human GLP-1 receptor = human GLP-1 receptor (human, UniProt P43220 24-463)
human GCG receptor = human GCG receptor (human, UniProt P47871 26-477)
human GCG receptor, sequence (P47871 26-477): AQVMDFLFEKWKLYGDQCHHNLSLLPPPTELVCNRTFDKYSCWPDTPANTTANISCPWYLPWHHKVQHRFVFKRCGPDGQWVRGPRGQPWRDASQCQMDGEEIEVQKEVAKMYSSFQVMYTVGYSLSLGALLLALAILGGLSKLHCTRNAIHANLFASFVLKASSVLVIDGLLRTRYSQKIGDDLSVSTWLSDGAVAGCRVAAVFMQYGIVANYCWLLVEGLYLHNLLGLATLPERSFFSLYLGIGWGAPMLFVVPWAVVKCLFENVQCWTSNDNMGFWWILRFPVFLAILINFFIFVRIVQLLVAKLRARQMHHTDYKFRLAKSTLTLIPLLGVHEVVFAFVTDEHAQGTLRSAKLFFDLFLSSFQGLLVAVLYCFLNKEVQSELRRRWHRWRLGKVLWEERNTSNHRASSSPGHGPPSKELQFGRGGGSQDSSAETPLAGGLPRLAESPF

human GIP receptor = target: T1, human GIP receptor

Binder	In vitro activity relative to native peptide (%), vs. GLP-1 (cAMP EC50) (human GLP-1 receptor)	In vitro activity relative to native peptide (%), vs. Glucagon (cAMP EC50) (human GCG receptor)	In vitro activity relative to native peptide (%), vs. GIP (cAMP EC50) (human GIP receptor)
B1	5.9%	< 0.1%	< 0.1%
B2	10.5%	62.8%	2.6%
B3	7.4%	< 0.1%	< 0.1%
B4	0.8%	< 0.1%	0.4%
B5	23.2%	13.9%	40.1%
B6	28.1%	8.2%	47.1%
B7	2.1%	< 0.1%	< 0.1%
B8	46%	< 0.1%	< 0.1%
B9	2.1%	0.4%	< 0.1%
B10	< 0.1%	< 0.1%	< 0.1%
B11	1.4%	< 0.1%	< 0.1%
B12	34.4%	195%	5.2%
B13	20.9%	14.9%	57.7%
